Results on two molecules are retold here after patent publication US20230189773A1, “ENGINEERED CELLS, ANIMAL MODELS, AND USES THEREOF FOR MODELING LOW GRADE GLIOMA (LGG)” (Washington University, priority 2021, published 2023).

Entries after “also recorded” stand apart in the source; their conditions may differ.

The test system of assay [1] is NF1-null iNPC-LGGs. Put plainly: PD0325901 treatment of Rag1-/- mice harboring NF1-null iNPC-LGGs. To be noted: 5 mg/kg/day intraperitoneal, 6 days a week, four weeks, from 1 mpi. The assay is classed as in vivo, mouse. As for the experimental part:
(§1) Twenty 4-week-old Rag1^−/− mice of both sexes harboring NF1-null iNPC-LGGs 1 month post-injection were intraperitoneally injected either with 10% DMSO in saline or with 5 mg/kg/day PD0325901 (Sigma-Aldrich), 6 days a week, for a total of four weeks. Treated mice were collected for histopathologic analysis. For in vitro experiments, iNPCs, iGRPs and iOPCs were treated with 10 nM PD0325901 for 24 h prior to immunocytochemical analysis.
Injected mice were transcardially perfused at 1, 3 or 6 months post-injection, initially with Ringer's solution, and then followed by ice-cold 4% paraformaldehyde. Whole mouse brains were harvested, post-fixed in 4% PFA and dehydrated in 70% ethanol. Dehydrated samples were then paraffin-embedded and serially sectioned (5 μm). Hematoxylin and eosin (H&E), as well as antibody immunohistochemical staining, were performed using the primary antibodies, Vectastain ABC kit (Vector Laboratories) and appropriate biotinylated secondary antibodies provided in TABLE 1.
Immunostaining was performed using the primary antibodies listed in TABLE 1 with appropriate Alexa Fluor-conjugated secondary antibodies. Bis-benzamide (Hoechst) was used as a nuclear counterstain.

Assay [2] deals with NF1-null iNPCs, iGRPs and iOPCs. Nature of the assay: In vitro PD0325901 treatment of iNPCs, iGRPs and iOPCs (Ki67, cleaved caspase-3 immunocytochemistry). The assay is classed as cell-based, human. To be noted: 10 nM, 24 h. As for the experimental part: as §1
(§2) Immunocytochemistry was performed on hiPSCs, iNPCs, iGRPs, iOPCs and astrocytes using the primary antibodies described in Additional file 1: Table 51. […] Appropriate secondary Alexa-Fluor-conjugated secondary antibodies diluted to 1:200 were employed and bis-benzamide (Hoechst) was used as a nuclear counterstain. Cells were mounted with Immu-mount (Fisher) and imaged on a Leica DMi1 fluorescent microscope using the Leica LAS X software, as per manufacturer's instructions.

The test system of assay [3] is NF1-null iNPCs. Nature of the assay: Direct cell count of NF1-null iNPCs after recombinant Cxcl10. Format: cell-based, human. The note with it: for decrease in cell number (direct cell count): NF1-null iNPCs. As for the experimental part:
RAS activity (ThermoFisher), cAMP (Fisher) detection, BrdU proliferation assays (Roche) and direct cell counting were performed according to the manufacturer's instructions. Cxcl10 (Ray Biotech) ELISA assays were performed according to the manufacturer's instructions. Each assay was performed using a minimum of three independently generated biological replicates.
(§3) Cxcl10 cDNA (Sino Biological) and lentiviral packaging vectors, or KIAA1549:BRAF adenoviral DNA, were transfected in HEK293T cells using Fugene HD (Promega) following the manufacturer's instructions. Viral supernatants were collected 48 h post-transfection, filtered, and used to directly infect iNPCs and iGRPs for 24 h. Cxcl10-GFP expression was confirmed by Western blotting as previously described. KIAA1549:BRAF-infected cells were puromycin-selected for 2 weeks prior to further expansion. Infected cells were used for intracranial injections in Rag1^−/− neonatal mice. For cell proliferation, cell death and differentiation analyses, iNPCs were treated with 25 or 100 pg/mL of murine recombinant Cxcl10 (PeproTech) for 24 h. Each experiment was performed a minimum of three times on independently generated samples.

Assay [4] relates to NF1-null iNPCs. Put plainly: Cleaved caspase-3+ cells (programmed cell death) in NF1-null iNPCs after recombinant Cxcl10. Format: cell-based, human. The note with it: for increase in programmed cell death (cleaved caspase-3+ cells): NF1-null iNPCs. As for the experimental part: as §2, §3
For assay [5], the system named is NF1-null iNPCs. Nature of the assay: GFAP+ astrocytic differentiation of NF1-null iNPCs after recombinant Cxcl10. Format: cell-based, human. The note with it: for increase in GFAP+ astrocytic differentiation: NF1-null iNPCs. On the procedure: as §2, §3
Where [6] appears, read: relative to vehicle-treated LGGs.
Where [7] appears, read: 25 pg/mL recombinant Cxcl10, 24 h.
Setting [8] is: 100 pg/mL recombinant Cxcl10, 24 h.
Setting [9] is: range over ectopic Cxcl10 expression or 25 or 100 pg/mL recombinant Cxcl10 (FIG. 19A).
Setting [10] is: range over ectopic Cxcl10 expression and recombinant Cxcl10 treatments (FIG. 19B).

For the molecule `O=C(NOC[C@H](O)CO)c1ccc(F)c(F)c1Nc1ccc(I)cc1F` [PD0325901], in assay [1], the “presence of Ku80+ iNPC-LGGs after treatment” value was “still detectable”. Further, in assay [1] (setting [6]), the “tumor cell apoptosis (TUNEL+ cells)” value is “increased hiPSC-LGG cell apoptosis; also recorded: increased tumor cell apoptosis” and the “tumor cell proliferation (Ki67+ cells)” value is listed as “reduced tumor cell proliferation; also recorded: decreased”. Also, in assay [2], the “apoptosis (cleaved caspase-3)” value is recorded as “increased hiPSC-LGG cell apoptosis; also recorded: increases apoptosis” and the “cell proliferation (Ki67)” value is on record as “reduced proliferation; also recorded: decreased cell proliferation; also recorded: decreases proliferation”.

B1: recombinant murine Cxcl10 protein: murine recombinant Cxcl10 (PeproTech), a cytokine belonging to the CXC chemokine family (protein, UniProt P17515 22-98, looked up)
C-X-C motif chemokine 10: IPLARTVRCNCIHIDDGPVRMRAIGKLEIIPASLSCPRVEIIATMKKNDEQRCLNPESKTIKNLMKAFSQKRSKRAP
Consider B1, for which the “decrease in cell number (direct cell count)” value is reported as 9% in assay [3] (setting [7]) and 13% in assay [3] (setting [8]). The “NF1-null iNPC cell numbers decrease (direct cell count)” value in assay [3] (setting [9]) was 9-20%. In addition, the entries for the “increase in programmed cell death (cleaved caspase-3+ cells)” value in assay [4] (setting [7]) and in assay [4] (setting [8]) were 4.6 fold and 20.5 fold, respectively. The “percent of cleaved caspase-3+ cells increases” value in assay [4] (setting [9]) is reported as 8.3-20.5 fold. Also, the “increase in GFAP+ astrocytic differentiation” value in assay [5] (setting [7]) amounted to 8.2 fold; in assay [5] (setting [8]) it was 20.5 fold. The “differentiated GFAP+ cells undergoing apoptosis (cleaved caspase-3+)” value in assay [5] (setting [10]) is given as 95-100%. Further, in assay [5] (setting [10]), the “share of total cells undergoing apoptosis (cleaved caspase-3+) that are GFAP+” value is recorded as 83.3-88.8%.
